Five molecules from patent publication US20250298032A1 (INSTITUTE FOR RESEARCH IN BIOMEDICINE, published 2025) can be followed below.

In one experiment the target is T1, CXCL13 N-loop peptide (human, biotin-Ahx at the N-terminus; amidated at the C-terminus).
T1 construct: Synthetic peptide, captured on Neutravidin-coated ELISA plates
T1 peptide: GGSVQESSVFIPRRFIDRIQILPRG
Kind of experiment: ELISA, biotinylated CXCL13 N-loop peptide on neutravidin plate, anti-human IgG-HRP, OD450 nm. The procedure:
(§1) To evaluate the antibodies' binding to chemokine peptides, 96-well plates (ThermoFisher, 442404) were coated with 50 μl per well of a 2 μg/ml Neutravidin (Life Technologies, 31000) solution in PBS, overnight at room temperature. Plates were washed 4 times with washing buffer (PBS+0.05% Tween-20 [Sigma-Aldrich]) and incubated with 50 μl per well of a 50 nM biotinylated peptide solution in PBS for 1 h at room temperature. After washing 4 times with washing buffer, plates were incubated with 200 μl per well of blocking buffer (PBS+2% BSA+0.05% Tween-20) for 2 h at room temperature. Plates were then washed 4 times with washing buffer, and serial dilutions of monoclonal antibodies or plasma were added in PBS +0.05% Tween-20 and incubated for 1 h at room temperature. To screen for the presence of anti-chemokine IgGs, plasma samples were assayed (unless otherwise stated) at 1:50 starting dilution followed by 3 fourfold serial dilutions (1:200, 1:800, 1:3200). Monoclonal antibodies were tested at 5 μg/ml starting concentration followed by 11 threefold serial dilutions. Plates were subsequently washed 4 times with washing buffer and incubated with anti-human IgG secondary antibody conjugated to horseradish peroxidase (HRP) (GE Healthcare, NA933) at a 1:5000 dilution in PBS+0.05% Tween-20. Finally, after washing 4 times with washing buffer, plates were developed by the addition of 50 μl per well of the HRP substrate TMB (ThermoFisher, 34021) for 9 min. The developing reaction was stopped with 50 μl per well of a 1 M H₂SO₄ solution, and absorbance was measured at 450 nm with an ELISA microplate reader (BioTek) with Gen5 software. A positive control (broadly reactive plasma from donor CLM70) and a negative control (uninfected participant) samples were included in each experiment. The Area Under the Curve (AUC) was obtained from two independent experiments and plotted with GraphPad Prism.
A general note: In an ELISA, binding on a coated surface is turned into a signal by an enzyme label.

Another experiment has as its target T2, CCL8 N-loop peptide (human, biotin-Ahx at the N-terminus; amidated at the C-terminus).
T2 construct: Synthetic peptide (GenScript), captured on Neutravidin-coated ELISA plates
T2 peptide: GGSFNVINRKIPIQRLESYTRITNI
Kind of experiment: ELISA, biotinylated CCL8 N-loop peptide on neutravidin plate, anti-human IgG-HRP, OD450 nm. The method, then: as §1

Experiment [1] has as its target T3, CCL2 N-loop peptide (human, biotin-Ahx at the N-terminus; amidated at the C-terminus).
T3 peptide: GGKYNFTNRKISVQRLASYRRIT
Kind of experiment: ELISA, biotinylated CCL2 N-loop peptide on neutravidin plate, OD450 nm. The procedure: as §1, with “Plates were subsequently washed 4 times with washing buffer and incubated with anti-human IgG secondary antibody conjugated to horseradish peroxidase (HRP) (GE Healthcare, NA933) at a 1:5000 dilution in PBS+0.05% Tween-20. Finally, after washing 4 times with washing buffer, plates were developed by the addition of 50 μl per well of the HRP substrate TMB (ThermoFisher, 34021) for 9 min.” left out, “A positive control (broadly reactive plasma from donor CLM70) and a negative control (uninfected participant) samples were included in each experiment. The Area Under the Curve (AUC) was obtained from two independent experiments and plotted with GraphPad Prism.” left out

The target of experiment [2] is T4, CCL13 N-loop peptide (human, biotin-Ahx at the N-terminus; amidated at the C-terminus).
T4 peptide: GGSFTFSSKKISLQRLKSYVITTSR
Kind of experiment: ELISA, biotinylated CCL13 N-loop peptide on neutravidin plate, OD450 nm. The method, then: as §1, with “Plates were subsequently washed 4 times with washing buffer and incubated with anti-human IgG secondary antibody conjugated to horseradish peroxidase (HRP) (GE Healthcare, NA933) at a 1:5000 dilution in PBS+0.05% Tween-20. Finally, after washing 4 times with washing buffer, plates were developed by the addition of 50 μl per well of the HRP substrate TMB (ThermoFisher, 34021) for 9 min.” left out, “A positive control (broadly reactive plasma from donor CLM70) and a negative control (uninfected participant) samples were included in each experiment. The Area Under the Curve (AUC) was obtained from two independent experiments and plotted with GraphPad Prism.” left out

Experiment [3] has as its target T5, CCL11 N-loop peptide (human, biotin-Ahx at the N-terminus; amidated at the C-terminus).
T5 peptide: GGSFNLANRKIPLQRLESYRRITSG
Kind of experiment: ELISA, biotinylated CCL11 N-loop peptide on neutravidin plate, OD450 nm. The procedure:
as §1, with “Plates were subsequently washed 4 times with washing buffer and incubated with anti-human IgG secondary antibody conjugated to horseradish peroxidase (HRP) (GE Healthcare, NA933) at a 1:5000 dilution in PBS+0.05% Tween-20. Finally, after washing 4 times with washing buffer, plates were developed by the addition of 50 μl per well of the HRP substrate TMB (ThermoFisher, 34021) for 9 min.” left out, “A positive control (broadly reactive plasma from donor CLM70) and a negative control (uninfected participant) samples were included in each experiment. The Area Under the Curve (AUC) was obtained from two independent experiments and plotted with GraphPad Prism.” left out

Experiment [4] concerns the target T6, CCL7 N-loop peptide (human, biotin-Ahx at the N-terminus; amidated at the C-terminus).
T6 peptide: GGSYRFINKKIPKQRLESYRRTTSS
Kind of experiment: ELISA, biotinylated CCL7 N-loop peptide on neutravidin plate, OD450 nm. The method, then:
as §1, with “Plates were subsequently washed 4 times with washing buffer and incubated with anti-human IgG secondary antibody conjugated to horseradish peroxidase (HRP) (GE Healthcare, NA933) at a 1:5000 dilution in PBS+0.05% Tween-20. Finally, after washing 4 times with washing buffer, plates were developed by the addition of 50 μl per well of the HRP substrate TMB (ThermoFisher, 34021) for 9 min.” left out, “A positive control (broadly reactive plasma from donor CLM70) and a negative control (uninfected participant) samples were included in each experiment. The Area Under the Curve (AUC) was obtained from two independent experiments and plotted with GraphPad Prism.” left out

Experiment [5] has as its target T6, CCL7 N-loop peptide. As to the kind of experiment: ELISA on biotinylated N-loop peptide (FIG. 2D). The method, then:
as §1

Experiment [6] addresses T3, CCL2 N-loop peptide. Kind of experiment: ELISA on biotinylated N-loop peptide (FIG. 2D). The method, then: as §1
Experiment [7] addresses T4, CCL13 N-loop peptide. As to the kind of experiment: ELISA on biotinylated N-loop peptide (FIG. 2D). The procedure: as §1
Experiment [8] deals with T5, CCL11 N-loop peptide. Kind of experiment: ELISA on biotinylated N-loop peptide (FIG. 2D). The method, then: as §1
Experiment [9] has as its target SARS-CoV-2 Spike (S) protein (SARS-CoV-2, UniProt P0DTC2 14-1208). As to the kind of experiment: ELISA on coated Spike protein (FIG. 2E).
Description: Plates were washed 4 times with washing buffer (PBS+0.05% Tween-20 [Sigma-Aldrich]) and incubated with 50 μl per well of a 50 nM biotinylated peptide solution in PBS for 1 h at room temperature. After washing 4 times with washing buffer, plates were incubated with 200 μl per well of blocking buffer (PBS+2% BSA+0.05% Tween-20) for 2 h at room temperature. Plates were then washed 4 times with washing buffer, and serial dilutions of monoclonal antibodies or plasma were added in PBS +0.05% Tween-20 and incubated for 1 h at room temperature. […] Monoclonal antibodies were tested at 5 μg/ml starting concentration followed by 11 threefold serial dilutions. Plates were subsequently washed 4 times with washing buffer and incubated with anti-human IgG secondary antibody conjugated to horseradish peroxidase (HRP) (GE Healthcare, NA933) at a 1:5000 dilution in PBS+0.05% Tween-20. […] The developing reaction was stopped with 50 μl per well of a 1 M H₂SO₄ solution, and absorbance was measured at 450 nm with an ELISA microplate reader (BioTek) with Gen5 software. […] The Area Under the Curve (AUC) was obtained from two independent experiments and plotted with GraphPad Prism.

B1: aCXCL13.001 (antibody, human IgG1, V domains shown)
VH: QVQLVESGGGLVKPGGSLRLSCAASGFMFSDYYMSWIRQAPGKGLEWISYIGNSDASTFYADSVKGRFAISRDNAKNLLFLQMNSLRAEDTAVYYCARDGYSHSRGYSYGRKDAFDIWGRGTMVTVSS
VL: EIVLTQSPATLSLSPGERATLSCRASQSVSSYLAWYQQKPGQAPRLLIYAASQRATGIPARFSGTGSGTDFTLTISSLEPEDSAVYYCQQRGNWPGTFGQGTKVEIK
notes: also called anti-CXCL13 N-loop antibody
Consider B1, for which the binding result in the experiment with CXCL13 N-loop peptide is given as “binds”.

B2: aCCL8.001 (antibody, human IgG1, V domains shown)
VH: QVQLQESGPGLVKPAETLSLTCTVSGDSVSSESYFWGWIRQSPRKGLEWLGAVWYNGDTYYNPSVGGRVTISMDTSMNEISLRLSSVTAADTAVYFCATEHCIDEICSPASDSWGQGTLVTVSS
VL: DIVMTQSPDSLAVSLGERATINCKSSQSVFFSSNNENCLAWFQQKPGQPPKLLIHWASTRASGVPDRFSGSGSGTDFTLTISSLQAEDVAVYYCHQYLKAPRTFGQGTKVEIK
notes: kappa (VK4-1); also called VH4-39/VK4-1 antibody; anti-CCL8 antibody
For orientation: EC50 (read off the curve) means the midpoint of the concentration-response curve. Low values mean higher potency in that assay, high ones lower potency in that assay. Take B2: the “EC50 (read off the curve)” value in the experiment with CCL8 N-loop peptide is around 10 ng/mL. The binding result in the experiment with CCL2 N-loop peptide [1], with CCL13 N-loop peptide [2], in the experiment with CCL11 N-loop peptide [3] and in the experiment with CCL7 N-loop peptide [4] was “no binding (tested: 5000 ng/ml)” each time.

B3: aCCL8.004 (antibody, human IgG1, V domains shown)
VH: QVQLQESGPGLVKPAETLSLTCIVSGDSVSSPSYFWGWIRQPPGKGLEWIGATWFNGDTYYNPSLQSRVSISMDMSLNRIYLSLNSVTAADTAVYFCATEHCFDEICSPASDSWGQGTLVTVSS
VL: DIVMTQSPDSLAVSLGERATISCMSSQSVFFSSNNENCLAWFQQKPGQPPKLLIYWASTRASGVPDRFSGSGSGTDFTLTISSLQAEDVAVYYCQQYLKAPRTFGQGTKVEIK
notes: also called VH4-39/VK4-1 antibody; anti-CCL8 antibody
As to B3, the binding result with CCL7 N-loop peptide [5] is given as “no binding (tested: 5 µg/ml starting concentration)”; in the experiment with CCL2 N-loop peptide [6] it was “no binding (tested: 5 µg/ml starting concentration)”; in the experiment with CCL13 N-loop peptide [7] it was “no binding (tested: 5 µg/ml starting concentration)”; in the experiment with CCL11 N-loop peptide [8], “no binding (tested: 5 µg/ml starting concentration)”; in experiment [9], “no binding”. For the same molecule, in the experiment with CCL8 N-loop peptide, the “EC50 (read off the curve)” value was around 10 ng/mL.

B4: aCCL8.003 (antibody, human IgG1, V domains shown)
VH: QLQLQESGPGLVKPSETLSLTCTVSGDSVSSSFYFWGWVRQPPGKGLEWIGSIYYTGDTYYKPSLKSRVTISMNTSKNQFSLRLSSVTAADTAVYYCATEFCTSGICHPASDSWGQGTLVTVSS
VL: DIVMTQSPDSLAVSLGERATINCKSSQSVLLSANNKNCLAWFQQKPGQPPKLLIYWASTRESGVPDRFSGSGSGTDFTLTISSLQAEDVAIYYCQQYYKAPRTFGQGTKVEIK
notes: as for B3
In the case of B4, the binding result in the experiment with CCL7 N-loop peptide [5] is recorded as “no binding (tested: 5 µg/ml starting concentration)”; with CCL2 N-loop peptide [6], “no binding (tested: 5 µg/ml starting concentration)”; with CCL13 N-loop peptide [7], “no binding (tested: 5 µg/ml starting concentration)”; with CCL11 N-loop peptide [8] it was “no binding (tested: 5 µg/ml starting concentration)”; in [9] it was “no binding”. In addition, the “EC50 (read off the curve)” value with CCL8 N-loop peptide was around 10 ng/mL.

B5: aCCL8.005 (antibody, human IgG1, V domains shown)
VH: QLQLQESGPGLVKPSETLSLTCTVSGDSVSSSFYFWGWVRQPPGKGLEWIGGTYYTGDTYHNPSLKSRLTISMDTSKNQFSLRLSSVTAADTAVYYCATEFCINGICRPASDSWGQGTLVTVSS
VL: DIVMTQSPDSLAVSLGERATINCKSSQSVLLSSNNKNCLAWFQQRPGQPPKLLIYWASTRESGVPDRFSGSGSGTDFTLTISSLQAEDVAIYYCQQYYKAPRTFGQGTKVEIK
notes: as for B3
Take B5: the “EC50 (read off the curve)” value in the experiment with CCL8 N-loop peptide was around 10 ng/mL. In addition, the binding result with CCL2 N-loop peptide [1], with CCL13 N-loop peptide [2], with CCL11 N-loop peptide [3] and with CCL7 N-loop peptide [4] was “no binding (tested: 5000 ng/ml)” throughout.
